{"source": "patent US7179468", "about": "(CORNELL RESEARCH FOUNDATION, dated 2007)", "molecules": {"B1": {"name": "N656L peptide (C52 peptide with leucine for asparagine at position 656) (peptide)", "chain": "NHTTWLEWDREINNYTSLIHSLIEESQNQQEKLEQELLELDKWASLWNWFNI", "notes": "No unique oligomeric state; The apparent molecular weight depends on the concentration"}}, "key": {"[1]": {"biological_target": "HIV-1 envelope glycoprotein (gp120/gp41 complex) of isolate 92US657 (HIV-1)", "assay": "cell-based or functional assay"}, "[2]": {"biological_target": "HIV-1 envelope glycoprotein (gp120/gp41 complex) of isolate JRFL (HIV-1)", "assay": "cell-based or functional assay"}, "[3]": {"biological_target": "HIV-1 envelope glycoprotein (gp120/gp41 complex) of isolate HC4 (HIV-1)", "assay": "cell-based or functional assay"}, "[4]": {"biological_target": "HIV-1 envelope glycoprotein (gp120/gp41 complex) of isolate NL4-3 (HIV-1)", "assay": "cell-based or functional assay"}, "[5]": {"biological_target": "HIV-1 envelope glycoprotein (gp120/gp41 complex) of isolate 2076c1.3 (HIV-1)", "assay": "cell-based or functional assay"}, "[6]": {"biological_target": "HIV-1 envelope glycoprotein (gp120/gp41 complex) of isolate DH123 (HIV-1)", "assay": "cell-based or functional assay"}, "[7]": {"biological_target": "HIV-1 envelope glycoprotein (gp120/gp41 complex) of isolate SF162 (HIV-1) (UniProt P19549)", "assay": "cell-based or functional assay"}, "[8]": {"biological_target": "Q652L peptide (C52 peptide with leucine for glutamine at position 652) (HIV-1 (HXB2 strain))", "assay": "sedimentation equilibrium, 4 C; self-association"}, "[9]": {"biological_target": "the molecule itself", "assay": "sedimentation equilibrium; self-association"}}}
{"molecule": "human antibody 2F5 isolated from an HIV-1-infected donor", "values": [{"measurement": "EC50 IgG (ug/ml), neutralization of HIV-1 (p24 production in PHA-activated PBMC)", "setting": "[1]", "value": 57.8, "unit": "µg/mL"}, {"measurement": "EC50 IgG (ug/ml), neutralization of HIV-1 (p24 production in PHA-activated PBMC)", "setting": "[2]", "value": 4.37, "unit": "µg/mL"}, {"measurement": "EC50 IgG (ug/ml), neutralization of HIV-1 (p24 production in PHA-activated PBMC)", "setting": "[3]", "value": 34.2, "unit": "µg/mL"}, {"measurement": "EC50 IgG (ug/ml), neutralization of HIV-1 (p24 production in PHA-activated PBMC)", "setting": "[4]", "value": 15.2, "unit": "µg/mL"}, {"measurement": "EC50 IgG (ug/ml), neutralization of HIV-1 (p24 production in PHA-activated PBMC)", "setting": "[5]", "value": 38.1, "unit": "µg/mL"}]}
{"molecule": "CD4-IgG2 (Fc fusion)", "values": [{"measurement": "EC50 IgG (ug/ml), neutralization of HIV-1 (p24 production in PHA-activated PBMC)", "setting": "[1]", "value": "> 10", "unit": "µg/mL"}, {"measurement": "EC50 IgG (ug/ml), neutralization of HIV-1 (p24 production in PHA-activated PBMC)", "setting": "[2]", "value": 0.51, "unit": "µg/mL"}, {"measurement": "EC50 IgG (ug/ml), neutralization of HIV-1 (p24 production in PHA-activated PBMC)", "setting": "[3]", "value": "> 10", "unit": "µg/mL"}, {"measurement": "EC50 IgG (ug/ml), neutralization of HIV-1 (p24 production in PHA-activated PBMC)", "setting": "[6]", "value": 5.18, "unit": "µg/mL"}, {"measurement": "EC50 IgG (ug/ml), neutralization of HIV-1 (p24 production in PHA-activated PBMC)", "setting": "[7]", "value": "< 0.062", "unit": "µg/mL"}, {"measurement": "EC50 IgG (ug/ml), neutralization of HIV-1 (p24 production in PHA-activated PBMC)", "setting": "[4]", "value": 0.21, "unit": "µg/mL"}, {"measurement": "EC50 IgG (ug/ml), neutralization of HIV-1 (p24 production in PHA-activated PBMC)", "setting": "[5]", "value": "> 10", "unit": "µg/mL"}]}
{"molecule": "Q652L peptide (C52 peptide with leucine for glutamine at position 652)", "values": [{"measurement": "molecular weight from sedimentation equilibrium (expected for a trimer 19,419)", "setting": "[8]", "value": 17700}]}
{"molecule": "B1", "values": [{"measurement": "binding result", "setting": "[9]", "value": "binds"}]}
